Assay results from patent publication US20250121076A1, “POLYPEPTIDE DRUG CONJUGATE HAVING NOVEL STRUCTURE AND APPLICATION THEREOF” (MEDSHINE DISCOVERY INC., priority 2021, published 2025).
Counter-ions that a name gives are not always drawn. Starred links: 1 amine or outer side, 2 acyl side, 3 side chain; linkers in the order of their positions; H or OH if unused. Positions of bridges follow the written chain, without caps; N, C: chain ends. Non-standard residues stand in square brackets, D forms with d. Residues, ends and D or L forms follow the SMILES beside them. Chains are numbered I, II in the order given. *: point of attachment. TATA = O=C(CC[*:1])N1CN(C(=O)CC[*:2])CN(C(=O)CC[*:3])C1; Dolaproine = CO[C@@H]([C@@H]1CCCN1)[C@@H](C)C(=O)O; Dil = CC[C@H](C)[C@H](NC)[C@@H](CC(=O)O)OC; X2 = O=C(CCCC(=O)[*:2])NCCC(=O)[*:1]; PABC = O=C(OCc1ccc(N[*:1])cc1)[*:2]; X1 = C[C@@H](N*)[C@@H](O)c1ccccc1; Hyp = O=C(O)[C@@H]1C[C@@H](O)CN1; hArg = N=C(N)NCCCC[C@H](N)C(=O)O; Cit = NC(=O)NCCC[C@H](N)C(=O)O; Pen = CC(C)(S)[C@H](N)C(=O)O; NMeV = CN[C@H](C(=O)O)C(C)C; Sar = CNCC(=O)O

Key:
Stability in plasma [1] = format: in vitro ADME, Cynomolgus macaques; details: Cynomolgus macaque plasma, 2 μM, 37° C., up to 240 min
Procedure: (§1) To test the stability of the compounds of the present invention in plasma from rats, Cynomolgus macaques, and humans.
(§2) The corresponding incubation plates, including T0, T10, T30, T60, T120, and T240 incubation plates, were added with a 2 μL working solution of the compound to be tested (100 μM). Three parallel wells were prepared for each sample. Then, 98 μL of blank plasma from SD rats, Cynomolgus macaques, and humans was added to the corresponding incubation plates to which the working solution had been added. All samples were incubated in a 37° C. water bath. […] At the end of each incubation time point, the corresponding incubation plate was removed, added with stop buffer, precipitated, and centrifuged for 20 minutes. Then, 150 μL of the supernatant was analyzed by the LC-MS/MS method. The concentration of the compound to be tested in the sample was semi-quantitatively determined by the liquid chromatography-tandem mass spectrometry (LC-MS/MS) method.

Stability in plasma [2] = format: in vitro ADME, SD rats; details: SD rat plasma, 2 μM, 37° C., up to 240 min
Procedure: as §1, §2

Human EphA2 = target: T1, Human EphA2 (Homo sapiens, UniProt P29317); experiment: Binding capacity test to EphA2 protein (SPR, Biacore 8K)
T1 construct: purchased Sino Biological 13926-H08HD
T1 sequence (P29317 24-534 limits assumed): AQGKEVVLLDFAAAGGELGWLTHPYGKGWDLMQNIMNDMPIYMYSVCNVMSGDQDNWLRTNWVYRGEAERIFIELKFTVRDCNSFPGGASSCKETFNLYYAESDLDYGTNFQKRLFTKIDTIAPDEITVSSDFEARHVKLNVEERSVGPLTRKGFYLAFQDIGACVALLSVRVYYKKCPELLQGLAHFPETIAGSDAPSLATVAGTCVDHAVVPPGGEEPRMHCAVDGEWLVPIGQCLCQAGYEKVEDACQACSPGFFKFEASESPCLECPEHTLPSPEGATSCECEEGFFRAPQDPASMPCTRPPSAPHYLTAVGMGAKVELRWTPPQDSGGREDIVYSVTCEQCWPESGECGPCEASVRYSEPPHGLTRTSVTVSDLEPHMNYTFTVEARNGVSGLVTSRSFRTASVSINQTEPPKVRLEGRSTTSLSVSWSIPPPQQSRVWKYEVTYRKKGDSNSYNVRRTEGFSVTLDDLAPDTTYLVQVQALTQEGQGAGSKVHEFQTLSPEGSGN
Procedure: To detect the affinity of the compound to be tested to the target protein EphA2 using the SPR method.
• Biacore 8K (GE Healthcare). • 96-well Plate (Cat #650101, greiner bio-one) • CM5 chip (Cat #BR-1005-30, GE Healthcare) • Amine Coupling Kit (Cat #BR-1000-50, GE Healthcare) EDC NHS 1 M ethanolamine. • 10 mM sodium acetate pH 4.5 (Cat #BR-1003-50, GE Healthcare) • DMSO (Cat #D4540, Sigma) • P20 (Cat #BR-1000-54, GE Healthcare). • PBS (Cat #BR-1006-72, GE Healthcare). • EphA2 (Cat #13926-H08HD, Sino Biological)
In this experiment, the amino coupling method was used. The target protein EphA2 was directly immobilized on the CM5 chip using Biacore 8K. The compound to be tested as an analyte was then diluted to a required concentration gradient with a buffer (10 mM PBS, pH 7.4, 137 mM NaCl, 2.7 mM KCl, 5% DMSO, and 0.05% P20) for multi-cycle kinetic detection, in which each cycle is formed by 180 seconds of sample injection and 180 seconds of dissociation, and then the next cycle was performed, to obtain kinetic analysis data on the affinity of the target protein EphA2 to the compound to be tested. The final data were subjected to Kinetics fitting analysis based on a 1:1 model using Biacore Insight Evaluation Software (V 2.0.15.12933).
1) Preparation of the buffer: 10 mM PBS, pH 7.4, 137 mM NaCl, 2.7 mM KCl, 5% DMSO, and 0.05% P20.
2) Activation of the CM5 chip: The CM5 chip was activated with 400 mM EDC and 100 mM NHS at a flow rate of 10 μL/min for 420 seconds.
3) Coupling of the target protein: The target protein was diluted to 10 μg/mL with 10 mM sodium acetate (pH 4.5) and coupled at a flow rate of 10 μL/min for 284 s. The 1 #, 2 #, and 3 #channels on the chip were used in the experiment, and the coupling results were 1639.9RU, 1747.8RU, and 1702.2RU, respectively.
4) Blocking of the CM5 chip: The CM5 chip was blocked with 1 M ethanolamine at a flow rate of 10 μL/min for 420 seconds.
5) Analyte concentration: The compound to be tested was diluted with the buffer. The compound to be tested was diluted from 100 nM to 0.78 nM in a 2-fold gradient.
6) Sample injection analysis: Each concentration of the working solution of the compound to be tested corresponded to one cycle, with a flow rate of 30 μL/min for binding for 180 seconds and dissociating for 180 seconds. The last cycle was a 5% DMSO solvent correction cycle. 7) All results were subjected to kinetics fitting analysis based on a 1:1 model.
The experimental data of five effective concentrations of the compounds of the present invention were selected for Kinetics fitting analysis based on a 1:1 model using Biacore Insight Evaluation Software (V 2.0.15.12933).

[3] = Metabolic stability in hepatocytes; format: in vitro ADME, Cynomolgus macaques; details: Cynomolgus macaque hepatocytes, 1 μM, 0.5×10^6 cells/mL
Procedure: To investigate the metabolic stability of the compounds of the present invention in hepatocytes from Cynomolgus macaques and humans.
Incubations were performed in 96-well plates using an external extraction method. Several 96-well sample precipitation plates, designated T0, T15, T30, T60, T90, T0-MC, T90-MC, and blank matrix, were prepared, respectively. The recovery culture medium and incubation culture medium were removed in advance and placed in a 37° C. water bath for preheating. Frozen hepatocytes from Cynomolgus macaques and humans were removed from a liquid nitrogen tank, recovered, and diluted to 0.51×10^6 cells/mL with the incubation culture medium. […]
At the end of the incubation at the corresponding time point, the incubation plates were removed, from which 25 μL of a compound mixture with the cells was removed and added to sample plates containing 125 μL of stop buffer. […] All samples were mixed uniformly and then analyzed by the LC-MS/MS method.
The concentration of the compound of the present invention in the sample was semi-quantitatively determined by the liquid chromatography-tandem mass spectrometry (LC-MS/MS) method without a standard curve and quality control sample. […]

CC[C@H](C)[C@@H]([C@@H](CC(=O)N1CCC[C@H]1[C@H](OC)[C@@H](C)C(=O)N[C@H](C)[C@@H](O)c1ccccc1)OC)N(C)C(=O)[C@@H](NC(=O)[C@H](C(C)C)N(C)C(=O)OCc1ccc(NC(=O)[C@H](CCCNC(N)=O)NC(=O)[C@@H](NC(=O)CCCC(=O)NCCC(=O)N(C)CC(=O)N(C)CC(=O)N(C)CC(=O)N(C)CC(=O)N(C)CC(=O)N(C)CC(=O)N(C)CC(=O)N(C)CC(=O)N(C)CC(=O)N(C)CC(=O)N[C@H]2CCCCNC(=O)C[C@@H](C(=O)N[C@H]3CSCCC(=O)N4CN5CN(C4)C(=O)CCSC(C)(C)[C@@H](C(N)=O)NC(=O)[C@H](CCCCNC(=N)N)NC(=O)[C@H](Cc4c[nH]c6ccccc46)NC(=O)[C@@H](CC(=O)O)NC(=O)[C@@H]4CCCN4C(=O)[C@H](Cc4c[nH]cn4)NC(=O)[C@H](CC(C)C)NC(=O)[C@H](CSCCC5=O)NC(=O)[C@H](CC(C)C)NC(=O)[C@@H]4CCCN4C(=O)[C@H](CC(N)=O)NC(=O)[C@H](C(C)C)NC(=O)[C@H](CC(C)C)NC(=O)[C@@H]4C[C@@H](O)CN4C3=O)NC(=O)[C@H](CCCCNC(=N)N)NC2=O)C(C)C)cc1)C(C)C [Acetate salt of PDC_8] (I: [Sar][Sar][Sar][Sar][Sar][Sar][Sar][Sar][Sar][Sar]K[hArg]DC[Hyp]LVNPLCLHP[dD]W[hArg][Pen]-NH2 / II: V[Cit][PABC][NMeV]V[Dil][Dolaproine]-X1; lactam I:11-I:13; linker I:14-I:21-I:28 via TATA; linker I:N-II:N via X2)
half-life (Stability in plasma [1]): > 9.63 h
half-life (Stability in plasma [2]): > 9.63 h
Kd (Human EphA2): 3.46 nM
half-life [3]: > 3.61 h
CLint scaled ([3]; read-out: CLint (liver)): < 23 mL/min/kg
